In the supplement of paper PMC11246515:
± gives the standard deviation of the averaged measurements.

Assay: total protein half-life in vivo (active degradation + dilution); higher = more stable protein
[1] = E. coli NCM3722 delta-clpP delta-lon delta-hslV, growth: N-lim chemostat, doubling time 6 h
[2] = E. coli NCM3722 delta-clpP, growth: N-lim chemostat, doubling time 6 h
[3] = E. coli NCM3722 delta-hslV, growth: N-lim chemostat, doubling time 6 h
[4] = E. coli NCM3722 delta-lon, growth: N-lim chemostat, doubling time 6 h
[5] = E. coli NCM3722 delta-smpB, growth: N-lim chemostat, doubling time 6 h
[6] = wild type E. coli NCM3722, growth: C-lim chemostat, doubling time 3 h
[7] = wild type E. coli NCM3722, growth: C-lim chemostat, doubling time 6 h
[8] = wild type E. coli NCM3722, growth: C-lim chemostat, doubling time 12 h
[9] = wild type E. coli NCM3722, growth: N-lim chemostat, doubling time 6 h
[10] = wild type E. coli NCM3722, growth: N-lim chemostat, doubling time 12 h
[11] = wild type E. coli NCM3722, growth: P-lim chemostat, doubling time 6 h
[12] = wild type E. coli NCM3722, growth: P-lim chemostat, doubling time 12 h

Sequence | total protein half-life in vivo [1] [h] | total protein half-life in vivo [2] [h] | total protein half-life in vivo [3] [h] | total protein half-life in vivo [4] [h] | total protein half-life in vivo [5] [h] | total protein half-life in vivo [6] [h] | total protein half-life in vivo [7] [h] | total protein half-life in vivo [8] [h] | total protein half-life in vivo [9] [h] | total protein half-life in vivo [10] [h] | total protein half-life in vivo [11] [h] | total protein half-life in vivo [12] [h]
MTTILKHLPVGQRIGIAFSGGLDTSAALLWMRQKGAVPYAYTANLGQPDEEDYDAIPRRAMEYGAENARLIDCRKQLVAEGIAAIQCGAFHNTTGGLTYFNTTPLGRAVTGTMLVAAMKEDGVNIWGDGSTYKGNDIERFYRYGLLTNAELQIYKPWLDTDFIDELGGRHEMSEFMIACGFDYKMSVEKAYSTDSNMLGATHEAKDLEYLNSSVKIVNPIMGVKFWDESVKIPAEEVTVRFEQGHPVALNGKTFSDDVEMMLEANRIGGRHGLGMSDQIENRIIEAKSRGIYEAPGMALLHIAYERLLTGIHNEDTIEQYHAHGRQLGRLLYQGRWFDSQALMLRDSLQRWVASQITGEVTLELRRGNDYSILNTVSENLTYKPERLTMEKGDSVFSPDDRIGQLTMRNLDITDTREKLFGYAKTGLLSSSAASGVPQVENLENKGQ [P0A6E4] | 4.11 ± 0.6 | 3.3 ± 0.15 | 3.2 ± 0.23 | 3.89 ± 0.34 | 3.26 ± 0.15 | 3.17 ± 0.06 | 5.27 ± 0.081 | 9.91 ± 0.69 | 3.39 ± 0.12 | 4.82 ± 0.071 | 5.69 ± 0.15 | 10.7 ± 0.7
MTTIVSVRRNGHVVIAGDGQATLGNTVMKGNVKKVRRLYNDKVIAGFAGGTADAFTLFELFERKLEMHQGHLVKAAVELAKDWRTDRMLRKLEALLAVADETASLIITGNGDVVQPENDLIAIGSGGPYAQAAARALLENTELSAREIAEKALDIAGDICIYTNHFHTIEELSYKA [P0A7B8] |  | 5.42 ± 0.062 |  | 6.49 ± 0.19 | 5.3 ± 0.5 | 2.72 ± 0.33 | 6.23 ± 0.091 | 10.2 ± 1.4 | 5.716 ± 0.023 | 9.85 ± 1 | 5.74 ± 0.23 | 
MTTKRKPYVRPMTSTWWKKLPFYRFYMLREGTAVPAVWFSIELIFGLFALKNGPEAWAGFVDFLQNPVIVIINLITLAAALLHTKTWFELAPKAANIIVKDEKMGPEPIIKSLWAVTVVATIVILFVALYW [P0A8Q0] | 5.7 ± 0.4 |  | 5.78 ± 0.49 | 6.06 ± 0.09 | 6.13 ± 0.39 | 2.81 ± 0.031 | 5.55 ± 0.079 | 10.9 ± 0.46 | 5.63 ± 0.14 | 11.3 ± 1.9 | 5.09 ± 0.12 | 12.5 ± 0.33
MTTLAIDIGGTKLAAALIGADGQIRDRRELPTPASQTPEALRDALSALVSPLQAHAQRVAIASTGIIRDGSLLALNPHNLGGLLHFPLVKTLEQLTNLPTIAINDAQAAAWAEFQALDGDITDMVFITVSTGVGGGVVSGCKLLTGPGGLAGHIGHTLADPHGPVCGCGRTGCVEAIASGRGIAAAAQGELAGADAKTIFTRAGQGDEQAQQLIHRSARTLARLIADIKATTDCQCVVVGGSVGLAEGYLALVETYLAQEPAAFHVDLLAAHYRHDAGLLGAALLAQGEKL | 4.69 ± 0.65 | 4.78 ± 0.069 | 4.19 ± 0.69 | 3.56 ± 1.9 | 4.85 ± 0.36 | 2.57 ± 0.17 | 5 ± 0.45 | 9.07 ± 0.36 | 5.02 ± 0.21 | 5.13 ± 2.2 |  | 10.5 ± 0.22
MTTLLNPYFGEFGGMYVPQILMPALRQLEEAFVSAQKDPEFQAQFNDLLKNYAGRPTALTKCQNITAGTNTTLYLKREDLLHGGAHKTNQVLGQALLAKRMGKTEIIAETGAGQHGVASALASALLGLKCRIYMGAKDVERQSPNVFRMRLMGAEVIPVHSGSATLKDACNEALRDWSGSYETAHYMLGTAAGPHPYPTIVREFQRMIGEETKAQILEREGRLPDAVIACVGGGSNAIGMFADFINETNVGLIGVEPGGHGIETGEHGAPLKHGRVGIYFGMKAPMMQTEDGQIEESYSISAGLDFPSVGPQHAYLNSTGRADYVSITDDEALEAFKTLCLHEGIIPALESSHALAHALKMMRENPDKEQLLVVNLSGRGDKDIFTVHDILKARGEI [P0A879] | 3.87 ± 0.32 | 3.49 ± 0.14 | 3.48 ± 0.17 | 3.69 ± 0.27 | 3.78 ± 0.36 | 2.95 ± 0.1 | 5.28 ± 0.27 | 9.833 ± 0.072 | 3.54 ± 0.042 | 5.38 ± 0.17 | 6.4 ± 1.5 | 11.5 ± 1.2
MTTLTARPEAITFDPQQSALIVVDMQNAYATPGGYLDLAGFDVSTTRPVIANIQTAVTAARAAGMLIIWFQNGWDEQYVEAGGPGSPNFHKSNALKTMRKQPQLQGKLLAKGSWDYQLVDELVPQPGDIVLPKPRYSGFFNTPLDSILRSRGIRHLVFTGIATNVCVESTLRDGFFLEYFGVVLEDATHQAGPKFAQKAALFNIETFFGWVSDVETFCDALSPTSFAHIA | 4.33 ± 0.13 | 1.41 ± 0.23 | 0.334 | 0.503 ± 0.025 | 0.441 |  |  |  |  | 0.812 |  | 
MTTLTLVLTAVGSVLLLLFLVMKARMHAFLALMVVSMGAGLFSGMPLDKIAATMEKGMGGTLGFLAVVVALGAMFGKILHETGAVDQIAVKMLKSFGHSRAHYAIGLAGLVCALPLFFEVAIVLLISVAFSMARHTGTNLVKLVIPLFAGVAAAAAFLVPGPAPMLLASQMNADFGWMILIGLCAAIPGMIIAGPLWGNFISRYVELHIPDDISEPHLGEGKMPSFGFSLSLILLPLVLVGLKTIAARFVPEGSTAYEWFEFIGHPFTAILVACLVAIYGLAMRQGMPKDKVMEICGHALQPAGIILLVIGAGGVFKQVLVDSGVGPALGEALTGMGLPIAITCFVLAAAVRIIQGSATVACLTAVGLVMPVIEQLNYSGAQMAALSICIAGGSIVVSHVNDAGFWLFGKFTGATEAETLKTWTMMETILGTVGAIVGMIAFQLLS [P0AC96] |  | 6.49 | 5.93 |  |  |  |  |  | 5.18 |  |  | 12.9
